From patent US20210388087A1 (Chugai, published 2021)

T1: Human CD3eg linker (human)
T1 construct: Single-chain construct; also called recombinant human CD3
T1 chain: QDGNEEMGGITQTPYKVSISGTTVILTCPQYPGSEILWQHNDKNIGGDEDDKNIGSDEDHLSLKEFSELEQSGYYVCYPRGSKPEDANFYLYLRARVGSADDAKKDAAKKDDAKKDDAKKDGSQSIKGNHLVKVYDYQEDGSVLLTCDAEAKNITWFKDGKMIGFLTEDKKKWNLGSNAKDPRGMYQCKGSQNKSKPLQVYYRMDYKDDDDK


Molecular target: T1, Human CD3eg linker
Experiment: SPR; fold vs parent H183/L072

Binder | fold change of affinity [fold]
H183/L072 VL L33N (antibody, name in Kabat numbering, V domains shown) VH: QVQLVESGGGLVQPGRSLRLSCAASGFTFSNAWMHWVRQAPGKGLEWVAQIKDKGNAYAAYYAPSVKGRFTISRDDSKNSIYLQMNSLKTEDTAVYYCHYVHYASASTVLPAFGVDAWGQGTTVTVSS VL: DIVMTQSPLSLPVTPGEPASISCQASQELVHMNRNTYNHWYQQKPGQAPRLLIYKVSNRFPGVPDRFSGSGSGTDFTLKISRVEAEDVGVYYCAQGTSVPFTFGQGTKLEIK | 0
H183/L072 VL L33T (antibody, name in Kabat numbering, V domains shown) VH: QVQLVESGGGLVQPGRSLRLSCAASGFTFSNAWMHWVRQAPGKGLEWVAQIKDKGNAYAAYYAPSVKGRFTISRDDSKNSIYLQMNSLKTEDTAVYYCHYVHYASASTVLPAFGVDAWGQGTTVTVSS VL: DIVMTQSPLSLPVTPGEPASISCQASQELVHMNRNTYTHWYQQKPGQAPRLLIYKVSNRFPGVPDRFSGSGSGTDFTLKISRVEAEDVGVYYCAQGTSVPFTFGQGTKLEIK | 0.3
H183/L072 VL M27eA (antibody, name in Kabat numbering, V domains shown) VH: QVQLVESGGGLVQPGRSLRLSCAASGFTFSNAWMHWVRQAPGKGLEWVAQIKDKGNAYAAYYAPSVKGRFTISRDDSKNSIYLQMNSLKTEDTAVYYCHYVHYASASTVLPAFGVDAWGQGTTVTVSS VL: DIVMTQSPLSLPVTPGEPASISCQASQELVHANRNTYLHWYQQKPGQAPRLLIYKVSNRFPGVPDRFSGSGSGTDFTLKISRVEAEDVGVYYCAQGTSVPFTFGQGTKLEIK | 1.3
H183/L072 VL M27eL (antibody, name in Kabat numbering, V domains shown) VH: QVQLVESGGGLVQPGRSLRLSCAASGFTFSNAWMHWVRQAPGKGLEWVAQIKDKGNAYAAYYAPSVKGRFTISRDDSKNSIYLQMNSLKTEDTAVYYCHYVHYASASTVLPAFGVDAWGQGTTVTVSS VL: DIVMTQSPLSLPVTPGEPASISCQASQELVHLNRNTYLHWYQQKPGQAPRLLIYKVSNRFPGVPDRFSGSGSGTDFTLKISRVEAEDVGVYYCAQGTSVPFTFGQGTKLEIK | 1
H183/L072 VL M27eK (antibody, name in Kabat numbering, V domains shown) VH: QVQLVESGGGLVQPGRSLRLSCAASGFTFSNAWMHWVRQAPGKGLEWVAQIKDKGNAYAAYYAPSVKGRFTISRDDSKNSIYLQMNSLKTEDTAVYYCHYVHYASASTVLPAFGVDAWGQGTTVTVSS VL: DIVMTQSPLSLPVTPGEPASISCQASQELVHKNRNTYLHWYQQKPGQAPRLLIYKVSNRFPGVPDRFSGSGSGTDFTLKISRVEAEDVGVYYCAQGTSVPFTFGQGTKLEIK | 1.4
H183/L072 VL L33V (antibody, name in Kabat numbering, V domains shown) VH: QVQLVESGGGLVQPGRSLRLSCAASGFTFSNAWMHWVRQAPGKGLEWVAQIKDKGNAYAAYYAPSVKGRFTISRDDSKNSIYLQMNSLKTEDTAVYYCHYVHYASASTVLPAFGVDAWGQGTTVTVSS VL: DIVMTQSPLSLPVTPGEPASISCQASQELVHMNRNTYVHWYQQKPGQAPRLLIYKVSNRFPGVPDRFSGSGSGTDFTLKISRVEAEDVGVYYCAQGTSVPFTFGQGTKLEIK | 0.4
H183/L072 VL M27eE (antibody, name in Kabat numbering, V domains shown) VH: QVQLVESGGGLVQPGRSLRLSCAASGFTFSNAWMHWVRQAPGKGLEWVAQIKDKGNAYAAYYAPSVKGRFTISRDDSKNSIYLQMNSLKTEDTAVYYCHYVHYASASTVLPAFGVDAWGQGTTVTVSS VL: DIVMTQSPLSLPVTPGEPASISCQASQELVHENRNTYLHWYQQKPGQAPRLLIYKVSNRFPGVPDRFSGSGSGTDFTLKISRVEAEDVGVYYCAQGTSVPFTFGQGTKLEIK | 1
H183/L072 VL M27eD (antibody, name in Kabat numbering, V domains shown) VH: QVQLVESGGGLVQPGRSLRLSCAASGFTFSNAWMHWVRQAPGKGLEWVAQIKDKGNAYAAYYAPSVKGRFTISRDDSKNSIYLQMNSLKTEDTAVYYCHYVHYASASTVLPAFGVDAWGQGTTVTVSS VL: DIVMTQSPLSLPVTPGEPASISCQASQELVHDNRNTYLHWYQQKPGQAPRLLIYKVSNRFPGVPDRFSGSGSGTDFTLKISRVEAEDVGVYYCAQGTSVPFTFGQGTKLEIK | 0.8
H183/L072 VL M27eG (antibody, name in Kabat numbering, V domains shown) VH: QVQLVESGGGLVQPGRSLRLSCAASGFTFSNAWMHWVRQAPGKGLEWVAQIKDKGNAYAAYYAPSVKGRFTISRDDSKNSIYLQMNSLKTEDTAVYYCHYVHYASASTVLPAFGVDAWGQGTTVTVSS VL: DIVMTQSPLSLPVTPGEPASISCQASQELVHGNRNTYLHWYQQKPGQAPRLLIYKVSNRFPGVPDRFSGSGSGTDFTLKISRVEAEDVGVYYCAQGTSVPFTFGQGTKLEIK | 0.9

Next, values leading:

fold change of affinity [fold] | Binder
0.9 | H183/L072 VL M27eF (antibody, name in Kabat numbering, V domains shown) VH: QVQLVESGGGLVQPGRSLRLSCAASGFTFSNAWMHWVRQAPGKGLEWVAQIKDKGNAYAAYYAPSVKGRFTISRDDSKNSIYLQMNSLKTEDTAVYYCHYVHYASASTVLPAFGVDAWGQGTTVTVSS VL: DIVMTQSPLSLPVTPGEPASISCQASQELVHFNRNTYLHWYQQKPGQAPRLLIYKVSNRFPGVPDRFSGSGSGTDFTLKISRVEAEDVGVYYCAQGTSVPFTFGQGTKLEIK
0.9 | H183/L072 VL M27eI (antibody, name in Kabat numbering, V domains shown) VH: QVQLVESGGGLVQPGRSLRLSCAASGFTFSNAWMHWVRQAPGKGLEWVAQIKDKGNAYAAYYAPSVKGRFTISRDDSKNSIYLQMNSLKTEDTAVYYCHYVHYASASTVLPAFGVDAWGQGTTVTVSS VL: DIVMTQSPLSLPVTPGEPASISCQASQELVHINRNTYLHWYQQKPGQAPRLLIYKVSNRFPGVPDRFSGSGSGTDFTLKISRVEAEDVGVYYCAQGTSVPFTFGQGTKLEIK
1.7 | H183/L072 VL L33Q (antibody, name in Kabat numbering, V domains shown) VH: QVQLVESGGGLVQPGRSLRLSCAASGFTFSNAWMHWVRQAPGKGLEWVAQIKDKGNAYAAYYAPSVKGRFTISRDDSKNSIYLQMNSLKTEDTAVYYCHYVHYASASTVLPAFGVDAWGQGTTVTVSS VL: DIVMTQSPLSLPVTPGEPASISCQASQELVHMNRNTYQHWYQQKPGQAPRLLIYKVSNRFPGVPDRFSGSGSGTDFTLKISRVEAEDVGVYYCAQGTSVPFTFGQGTKLEIK
0 | H183/L072 VL L33S (antibody, name in Kabat numbering, V domains shown) VH: QVQLVESGGGLVQPGRSLRLSCAASGFTFSNAWMHWVRQAPGKGLEWVAQIKDKGNAYAAYYAPSVKGRFTISRDDSKNSIYLQMNSLKTEDTAVYYCHYVHYASASTVLPAFGVDAWGQGTTVTVSS VL: DIVMTQSPLSLPVTPGEPASISCQASQELVHMNRNTYSHWYQQKPGQAPRLLIYKVSNRFPGVPDRFSGSGSGTDFTLKISRVEAEDVGVYYCAQGTSVPFTFGQGTKLEIK
0.9 | H183/L072 VL M27eN (antibody, name in Kabat numbering, V domains shown) VH: QVQLVESGGGLVQPGRSLRLSCAASGFTFSNAWMHWVRQAPGKGLEWVAQIKDKGNAYAAYYAPSVKGRFTISRDDSKNSIYLQMNSLKTEDTAVYYCHYVHYASASTVLPAFGVDAWGQGTTVTVSS VL: DIVMTQSPLSLPVTPGEPASISCQASQELVHNNRNTYLHWYQQKPGQAPRLLIYKVSNRFPGVPDRFSGSGSGTDFTLKISRVEAEDVGVYYCAQGTSVPFTFGQGTKLEIK
0.9 | H183/L072 VL M27eH (antibody, name in Kabat numbering, V domains shown) VH: QVQLVESGGGLVQPGRSLRLSCAASGFTFSNAWMHWVRQAPGKGLEWVAQIKDKGNAYAAYYAPSVKGRFTISRDDSKNSIYLQMNSLKTEDTAVYYCHYVHYASASTVLPAFGVDAWGQGTTVTVSS VL: DIVMTQSPLSLPVTPGEPASISCQASQELVHHNRNTYLHWYQQKPGQAPRLLIYKVSNRFPGVPDRFSGSGSGTDFTLKISRVEAEDVGVYYCAQGTSVPFTFGQGTKLEIK
